# Data: PMC5770554, “Molecular Insights into Function and Competitive Inhibition of Pseudomonas aeruginosa Multiple Virulence Factor Regulator” (mBio, 2018)
# B1: MvfR ligand binding domain (LBD), residues 94 to 295 (domain or fragment)
# chain: TNLRVLLDTAIPPSFCDTVSSVLLDDFNMVSLIRTSPADSLATIKQDNAEIDIAITIDEELKISRFNQCVLGYTKAFVVAHPQHPLCNASLHSIASLANYRQISLGSRSGQHSNLLRPVSDKVLFVENFDDMLRLVEAGVGWGIAPHYFVEERLRNGTLAVLSELYEPGGIDTKVYCYYNTALESERSFLRFLESARQRLREL
# notes: Thr that precedes residue 94 in the construct (His-THB-SUMO-ULP-Thr) and is left after cleavage with SEN protease; the model numbers it Thr93; Q9I4X0 is the entry of strain PAO1; Cloned into pET28a; the model comprises Thr93 to Leu295; also called MvfR LBD; PqsR LBD; source: E. coli BL21(DE3), purified (Ni-NTA, negative Ni-NTA after cleavage of the tag with SEN protease, gel filtration); not …
# Molecular target: the molecule itself
# Assay: crystal structure; MvfR LBD with the inhibitor M64 bound; space group C 2 2 2_(1), 2.65 Å, two monomers in the asymmetric unit; tetrameric arrangement in the crystal
protein,measurement,value
B1,stoichiometry N,4
